Molecular target: the molecule itself
Assay: native PAGE, self-association
Experimental: Native polyacrylamide gel electrophoresis (PAGE) was performed by use of the MINI PROTEAN® 3 electrophoresis cell and a discontinuous buffer system (Ornstein-Davis) according to the standard procedures given by the manufacturer (Bio-Rad Laboratories). Using native PAGE, pure canine S100A12 was evaluated in the presence of 0.3 mM Ca²⁺, 3 mM Ca²⁺, 10 mM Ca²⁺, and 10 mM EGTA.

B1: canine S100A12 (other)
chain: TKLEDHLEGIVDVFHRYSARVGHPDTLSKGEMKQLIIRELPNTLKNTKDQATVDKLFQDLDADKDGQVNFNEFISLVSVVLDTSHKNTHK
notes: Purified from canine leukocytes; Runs as a non-covalent homodimer on native PAGE; In the RIA the tracer is 125I-labelled; In serum and fecal extracts it is the native protein; also called calgranulin C; EN-RAGE
  binding result: binds

— patent US20110287458A1 (TEXAS A AND M UNIVERSITY SYSTEM, published 2011)
